Source: patent US20250129145A1 (Ablynx, published 2025)

B1: TPP-66097 (other)
chain: LKEAKEKAIEELKKAGITSDYYFDLINKAKTVEGVNALKDEILKAGGGGSGGGGSGGGGSGGGGSGGGGSGGGGSGGGGSEVQLVESGGGVVQPGGSLRLSCAASGFTFRSFGMSWVRQAPGKGPEWVSSISGSGSDTLYADSVKGRFTISRDNSKNTLYLQMNSLRPEDTALYYCTIGGSLSRSSQGTLVTVSSA
notes: also called ABD-35GS-ALB23002-A; ABD-35GS-Alb223
B2: TPP-66099 (VHH)
chain: EVQLVESGGGVVQPGGSLRLSCAASGFTFRSFGMSWVRQAPGKGPEWVSSISGSGSDTLYADSVKGRFTISRDNSKNTLYLQMNSLRPEDTALYYCTIGGSLSRSSQGTLVTVSSGGGGSGGGGSGGGGSGGGGSGGGGSGGGGSGGGGSEVQLVESGGGVVQPGGSLRLSCAASGFTFRSFGMSWVRQAPGKGPEWVSSISGSGSDTLYADSVKGRFTISRDNSKNTLYLQMNSLRPEDTALYYCTIGGSLSRSSQGTLVTVSSGGGGSGGGGSGGGGSGGGGSGGGGSGGGGSGGGGSEVQLVESGGGVVQPGGSLRLSCAASGFTFRSFGMSWVRQAPGKGPEWVSSISGSGSDTLYADSVKGRFTISRDNSKNTLYLQMNSLRPEDTALYYCTIGGSLSRSSQGTLVTVSSA
notes: also called ALB23002-35GS-ALB23002-35GS-ALB23002-A
B3: TPP-66095 (other)
chain: DLGKKLLEAARAGQDDEVRELLKAGADVNAKDYFSHTPLHLAARNGHLKIVEVLLKAGADVNAKDFAGKTPLHLAANEGHLEIVEVLLKAGADVNAQDIFGKTPADIAADAGHEDIAEVLQKAAGGGGSGGGGSGGGGSGGGGSGGGGSGGGGSGGGGSEVQLVESGGGVVQPGGSLRLSCAASGFTFRSFGMSWVRQAPGKGPEWVSSISGSGSDTLYADSVKGRFTISRDNSKNTLYLQMNSLRPEDTALYYCTIGGSLSRSSQGTLVTVSSA
notes: also called DARPIN-35GS-ALB23002-A; DARPIN-35GS-Alb223
B4: TPP-66100 (VHH)
chain: EVQLVESGGGVVQPGGSLRLSCAASGLTFSSYAMGWFRQAPGKERERVVSISRGGGYTYYADSVKGRFTISRDNSKNTVYLQMNSLRPEDTALYYCAAARYWATGSEYEFDYWGQGTLVTVSSGGGGSGGGGSGGGGSGGGGSGGGGSGGGGSGGGGSEVQLVESGGGVVQPGDSLRLSCAASGGTFSTYVMGWFRQAPGKEREFVSAISQNSIHTYYANSVKGRFTISRDNSKNTVYLQLNSLRPEDTALYYCAASRFTSWYTADYEYDYWGQGTLVTVSSGGGGSGGGGSGGGGSGGGGSGGGGSGGGGSGGGGSEVQLVESGGGVVQPGGSLRLSCAASGFTFRSFGMSWVRQAPGKGPEWVSSISGSGSDTLYADSVKGRFTISRDNSKNTLYLQMNSLRPEDTALYYCTIGGSLSRSSQGTLVTVSSA
notes: also called ALBX00002-35GS-T023500029-35GS-ALB23002-A
B5: TPP-66094 (VHH)
chain: EVQLVESGGGVVQPGDSLRLSCAASGGTFSTYVMGWFRQAPGKEREFVSAISQNSIHTYYANSVKGRFTISRDNSKNTVYLQLNSLRPEDTALYYCAASRFTSWYTADYEYDYWGQGTLVTVSSGGGGSGGGGSGGGGSGGGGSGGGGSGGGGSGGGGSEVQLVESGGGVVQPGGSLRLSCAASGFTFRSFGMSWVRQAPGKGPEWVSSISGSGSDTLYADSVKGRFTISRDNSKNTLYLQMNSLRPEDTALYYCTIGGSLSRSSQGTLVTVSSA
notes: also called T023500029-35GS-ALB23002-A; T023500029-35GS-Alb223
B6: TPP-66102 (VHH)
chain: EVQLVESGGGVVQPGGSLRLSCAASGFTFRSFGMSWVRQAPGKGPEWVSSISGSGSDTLYADSVKGRFTISRDNSKNTLYLQMNSLRPEDTALYYCTIGGSLSRSSQGTLVTVSSGGGGSGGGGSGGGGSGGGGSGGGGSGGGGSGGGGSEVQLVESGGGVVQPGGSLRLSCAASGFTFRSFGMSWVRQAPGKGPEWVSSISGSGSDTLYADSVKGRFTISRDNSKNTLYLQMNSLRPEDTALYYCTIGGSLSRSSQGTLVTVSSGGGGSGGGGSGGGGSGGGGSGGGGSGGGGSGGGGSEVQLVESGGGVVQPGGSLRLSCAASGFTFRSFGMSWVRQAPGKGPEWVSSISGSGSDTLYADSVKGRFTISRDNSKNTLYLQMNSLRPEDTALYYCTIGGSLSRSSQGTLVTVSSGGGGSGGGGSGGGGSGGGGSGGGGSGGGGSGGGGSEVQLVESGGGVVQPGGSLRLSCAASGFTFRSFGMSWVRQAPGKGPEWVSSISGSGSDTLYADSVKGRFTISRDNSKNTLYLQMNSLRPEDTALYYCTIGGSLSRSSQGTLVTVSSA
notes: also called ALB23002-35GS-ALB23002-35GS-ALB23002-35GS-ALB23002-A
B7: IRR00164 (VHH)
VHH: EVQLVESGGGVVQPGGSLRLSCAASGFTFRSFGMSWVRQAPGKGPEWVSSISGSGSDTLYADSVKGRFTISRDNSKNTLYLQMNSLRPEDTALYYCTIGGSLSRSSQGTLVTVSS
notes: also called CNB-9GS-CNB-9GS-CNB-9GS-ALB23002-A; CNB-CNB-CNB-Alb223
B8: TPP-66101 (other)
chain: DLGKKLLEAARAGQDDEVRELLKAGADVNAKDYFSHTPLHLAARNGHLKIVEVLLKAGADVNAKDFAGKTPLHLAANEGHLEIVEVLLKAGADVNAQDIFGKTPADIAADAGHEDIAEVLQKAAGGGGSGGGGSGGGGSGGGGSGGGGSGGGGSGGGGSEVQLVESGGGVVQPGGSLRLSCAASGFTFRSFGMSWVRQAPGKGPEWVSSISGSGSDTLYADSVKGRFTISRDNSKNTLYLQMNSLRPEDTALYYCTIGGSLSRSSQGTLVTVSSGGGGSGGGGSGGGGSGGGGSGGGGSGGGGSGGGGSEVQLVESGGGVVQPGGSLRLSCAASGFTFRSFGMSWVRQAPGKGPEWVSSISGSGSDTLYADSVKGRFTISRDNSKNTLYLQMNSLRPEDTALYYCTIGGSLSRSSQGTLVTVSSA
notes: also called DARPIN-35GS-ALB23002-35GS-ALB23002-A
B9: TPP-66093 (VHH)
chain: EVQLVESGGGVVQPGGSLRLSCAASGLTFSSYAMGWFRQAPGKERERVVSISRGGGYTYYADSVKGRFTISRDNSKNTVYLQMNSLRPEDTALYYCAAARYWATGSEYEFDYWGQGTLVTVSSGGGGSGGGGSGGGGSGGGGSGGGGSGGGGSGGGGSEVQLVESGGGVVQPGGSLRLSCAASGFTFRSFGMSWVRQAPGKGPEWVSSISGSGSDTLYADSVKGRFTISRDNSKNTLYLQMNSLRPEDTALYYCTIGGSLSRSSQGTLVTVSSA
notes: also called ALBX00002-35GS-ALB23002-A; ALBX00002-35GS-Alb223

Columns and labels:
human serum albumin [1] = target: T1, human serum albumin (human, UniProt P02768 25-609); assay: SPR Biacore 8K+, HSA immobilized (C1 chip), pH 7.4, bivalent analyte fit (KD1)
T1 construct: Bought protein; also called HSA
Protocol: (§1) The affinities of the purified multivalent albumin binding constructs for HSA at pH 7.4 was determined on a Biacore 8K+ instrument. HSA (Sigma-Aldrich—Sigma, Cat No. A8763) was immobilized on a Series S Sensor Chip C1. The multivalent albumin binding proteins as described in Table 12 above were injected at 9 different concentrations (between 1.6 and 2500 nM) and allowed to associate for 120 s at 30 μL/min and dissociate for 600 s.

human serum albumin [2] = target: T1, human serum albumin; assay: SPR, pH 7.4, immobilized HSA density ~500 RU
Protocol: (§2) The purified multivalent albumin binding constructs were also tested in SPR on different densities of HSA (100 RU until 6700 RU) to detect avidity.

human serum albumin [3] = target: T1, human serum albumin; assay: SPR Biacore 8K+, HSA immobilized (C1 chip), pH 7.4, bivalent analyte fit (ka1)
Protocol: as §1

human serum albumin [4] = target: T1, human serum albumin; assay: SPR, pH 7.4, immobilized HSA density ~6700 RU
Protocol: as §2

human serum albumin [5] = target: T1, human serum albumin; assay: SPR, pH 7.4, immobilized HSA density ~100 RU
Protocol: as §2

human serum albumin [6] = target: T1, human serum albumin; assay: SPR Biacore 8K+, HSA immobilized (C1 chip), pH 7.4, bivalent analyte fit
Protocol: as §1

human serum albumin [7] = target: T1, human serum albumin; assay: SPR Biacore 8K+, HSA immobilized (C1 chip), pH 7.4, bivalent analyte fit (kd1)
Protocol: as §1

human serum albumin [8] = target: T1, human serum albumin; assay: SPR, pH 7.4, immobilized HSA density ~3000 RU
Protocol: as §2

| Binder | Kd (human serum albumin [1]) [nM] | koff (human serum albumin [2]) [s⁻¹] | kon (human serum albumin [3]) [M⁻¹ s⁻¹] | koff (human serum albumin [4]) [s⁻¹] | koff (human serum albumin [5]) [s⁻¹] | ka2 (bivalent analyte fit) (human serum albumin [6]) [M⁻¹ s⁻¹] | kd2 (bivalent analyte fit) (human serum albumin [6]) [s⁻¹] | koff (human serum albumin [7]) [s⁻¹] | koff (human serum albumin [8]) [s⁻¹] |
| --- | --- | --- | --- | --- | --- | --- | --- | --- | --- |
| B1 | 0.082 | 0.00012 | 180000 | 6e-05 | 7.4e-05 | 0.0023 | 0.0088 | 1.5e-05 | 8.4e-05 |
| B2 | 1.4 | 0.00018 | 370000 | 3.6e-05 | 0.00041 | 0.0022 | 0.0038 | 0.0005 | 7.2e-05 |
| B3 |  | 0.00038 |  | 8.3e-05 | 0.00021 |  |  |  | 0.00016 |
| B4 | 1.7 | 0.00032 | 200000 | 0.00032 | 0.00027 | 0.0074 | 0.026 | 0.00034 | 0.00036 |
| B5 | 0.49 | 9.3e-05 | 270000 | 5.6e-05 | 0.00012 | 0.00027 | 0.0022 | 0.00013 | 7.6e-05 |
| B6 | 2 | 0.00012 | 280000 | 1.4e-05 | 0.00043 | 0.005 | 0.0066 | 0.00055 | 3.6e-05 |
| B7 |  | 0.002 |  | 0.0012 |  |  |  |  | 0.0016 |
| B8 | 5 | 0.00023 | 300000 | 4e-05 | 0.00076 | 95 | 65 | 0.0015 | 0.0001 |
| B9 | 0.66 | 8.6e-05 | 180000 | 5.2e-05 | 0.00011 | 0.00012 | 0.00084 | 0.00012 | 6.6e-05 |
